From patent US7049079B1, “Coupling factor 6 inhibitor and potentiator and use thereof” (Daiichi Suntory Pharma Co.,Ltd., priority 1999, dated 2006)

How the values were obtained:
[1] = system: release of arachidonic acid from HUVEC (PLA2); experiment: Release of [3H]-labeled arachidonic acid from HUVEC; assay type: cell-based, human; settings: for inhibition of release of arachidonic acid from HUVEC by PLA2 inhibitors: 40 μM AACOCF3, 1 μM OPC, 1 μM BEL
Description: HUVEC were cultured for 24 hours in the presence of [^3H]-labeled arachidonic acid. Then the medium was replaced by DMEM and the culture was continued in the presence of […] of CF6 at 37° C. for an additional 30 minutes. Then the release of the [^3H]-labeled arachidonic acid into the liquid culture was examined. […] The same test was carried out in the presence of 1 μM of bradykinin.
Next, the effects of a cPLA2 inhibitor (40 μM of AACOCF3: arachidonic acid […]), an sPLA2 inhibitor (1 μM of OPC; oleyloxyethylphosphorylcholine) and an iPLA2 inhibitor (1 μM of BEL: […]) of inhibiting the release of arachidonic acid form HUVEC were examined. […] Namely, the PLA2 participating in the release of arachidonic acid is cPLA2 (FIGS. 20 and 21).

[2] = system: spontaneously hypertensive rats (SHR); experiment: Arterial blood pressure of anesthetized SHR, measured in the open manner from the carotid artery; assay type: in vivo, rat; settings: SHR 15 weeks of age; rCF6 0.3, 1.0, 3.0 μg/kg bolus into femoral vein
Description: (§1) Blood pressure was measured in the open manner by inserting catheters directly into the aorta of rats anesthetized with 75 mg/kg of ketamine and 15 mg/kg of xylazine hydrochloride. Namely, two polyethylene catheters filled with physiological saline containing 20 U/ml of heparin were inserted respectively into the left carotid artery and the left femoral vein. Then the catheter inserted into the left carotid artery was connected to a pressure detector (Carrier Amplifier AP-601G, Nihon Kohden Co.). Each sample was dissolved in 200 μL of physiological saline and then administered via the vena cava.
(§2) SHR and WKY each 16 weeks of age were anesthetized and the anti-rCF6 antibody (0.3, 1.0 and 3.0 μg/kg) was administered by bolus injection into the femoral vein. Then the arterial blood pressure was measured in the open manner from the carotid artery.
(§3) Effects of the anti-rCF6 antibody on the effect of bradykinin of lowering rat blood pressure were examined. SHR and WKY each 16 weeks of age were anesthetized and bradykinin (0.3, 1.0 and 3.0 μg/kg) was cumulatively administered by bolus injection into the femoral vein. Then the arterial blood pressure was measured in the open manner from the carotid artery. […]
(§4) Effects of rCF6 on rat blood pressure were examined. […] Then the arterial blood pressure was measured in an open manner from the carotid artery.

[3] = system: PGI2 production of human umbilical venal endothelial cells (HUVEC); experiment: Inhibition of PGI2 production (6-keto-PGF1α secreted into the medium) in HUVEC; assay type: cell-based
Description: The activity of inhibiting the PGI2 production was evaluated by measuring the stable metabolite of PGI2 (6-keto-PGF1α) secreted into the medium of smooth muscle cells collected from SHR mesenteric artery or human umbilical venal endothelial cells (HUVEC). Namely, the smooth muscle cells collected from SHR mesenteric artery were subcultured in a Dulbecco's modified Eagle medium (DMEM) containing 10% (v/v) of fetal calf serum until these cells attained the confluent state. HUVEC were proliferated in a synthetic medium (HuMedia, Kurabo Industries) containing 2% (v/v) of fetal calf serum, 10 ng/ml of EGF, 5 ng/ml of bFGF, 1 μg/ml of hydrocortisone and 10 μg/ml of heparin. The smooth muscle cells collected from SHR mesenteric artery or HUVEC were incubated for 30 minutes in the DMEM medium containing the sample to be analyzed and 6-keto-PGF1α secreted into the medium during the incubation period was determined.
HUVEC were cultured at 37° C. for 30 minutes in the DMEM containing 1, 10 and 100 nM of rCF6 prepared in Referential Example 2 and thus the inhibition of the PGI2 production by CF6 was examined. The production of PGI2 was measured with the guidance of the amount of 6-keto-PGF1α, which is a stable metabolite of PGI2, secreted into the medium. […] The same test was carried out in the presence of 1 μM of bradykinin.
Further, 10 nM of CF6 inhibited the increase in the PGI2 production due to 2 μg/ml of ionomycin but not the increase therein due to 10 ng/ml of arachidonic acid and 10 ng/ml of PGH2.

[4] = system: rats with normal blood pressure (WKY); experiment: Arterial blood pressure of anesthetized WKY, measured in the open manner from the carotid artery; assay type: in vivo, rat; settings: WKY 15 weeks of age; rCF6 0.3, 1.0, 3.0 μg/kg bolus into femoral vein
Description: as §1, §2, §3, §4

## CCCCC/C=C\C/C=C\C/C=C\C/C=C\CCCC(=O)C(F)(F)F [AACOCF3, arachidonic acid 3-fluoromethyl ketone]
[1]
  inhibition of release of arachidonic acid from HUVEC by PLA2 inhibitors: inhibited the release of arachidonic acid

## O=C1O/C(=C/Br)CCC1c1cccc2ccccc12 (stereo not drawn) [BEL, bromoenolcholine]
[1]
  inhibition of release of arachidonic acid from HUVEC by PLA2 inhibitors: cPLA2 inhibitor alone inhibited

## CCCCCCCC/C=C\CCCCCCCCOCCOP(=O)([O-])OCC[N+](C)(C)C [OPC, oleyloxyethylphosphorylcholine]
[1]
  inhibition of release of arachidonic acid from HUVEC by PLA2 inhibitors: cPLA2 inhibitor alone inhibited

B1: rCF6: rat coupling factor 6, a 76 amino acid subunit of H+ ATP synthase (SEQ ID NO:2), recombinantly produced (protein)
chain: NKELDPVQKLFLDKIREYKAKRLASGGPVDTGPEYQQEVDRELFKLKQMYGKGEMDKFPTFNFEDPKFEVLDKPQS
modifications: Rat
[2]
  average arterial blood pressure: dose-dependently increased
[3]; 10 nM CF6, 10 ng/ml PGH2
  increase in PGI2 production due to PGH2: not
[3]; 10 nM CF6, 10 ng/ml arachidonic acid
  increase in PGI2 production due to arachidonic acid: not
[3]; 10 nM CF6, 2 μg/ml ionomycin
  increase in PGI2 production due to ionomycin: inhibited
[3]; HUVEC, 1, 10 and 100 nM rCF6, 37° C., 30 minutes
  PGI2 production (6-keto-PGF1α): dose-dependently inhibited
[3]; HUVEC, 1, 10 and 100 nM rCF6, in the presence of 1 μM bradykinin
  increase in PGI2 production due to bradykinin: dose-independently inhibited
[1]; HUVEC, 1, 10 and 100 mM CF6, 37° C., 30 minutes
  release of [3H]-labeled arachidonic acid: dose-dependently inhibited
[1]; HUVEC, CF6 1, 10 and 100 mM, in the presence of 1 μM bradykinin
  bradykinin-promoted release of [3H]-labeled arachidonic acid: dose-dependently inhibited
[4]
  average arterial blood pressure: dose-dependently increased
